For five substances, Kd, ka1 (two state model, first step) and kd1 (two state model, first step) results are on record in publication PMC4658703.

Read-outs that look alike come from different tables or passages of the source.

What all share (assay): SPR
The target of assay [1] is Human IGF2 (human).
Assay [2] concerns the target Human IGF2 (human). The source holds these as a separate data set.
Assay [3] has as its target Echidna IGF2 (peak 2), purified recombinant (echidna).
The target is the same in assay [4]. This is another data set of the same source.
For assay [5], the target named is Chicken IGF2 (chicken) (UniProt P33717).
Chain of Chicken IGF2 (chicken) (P33717 24-91): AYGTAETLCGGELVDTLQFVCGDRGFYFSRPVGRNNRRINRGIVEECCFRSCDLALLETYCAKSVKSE
The target is the same in assay [6]. This is another data set of the same source.
Assay [7] deals with Echidna IGF2 (peak 2), purified recombinant (echidna). This is another data set of the same source.
Assay [8] deals with Human IGF2 (human). This is another data set of the same source.

Chain of Human IGF2R domain 11 (wild type) (P11717 1508-1650): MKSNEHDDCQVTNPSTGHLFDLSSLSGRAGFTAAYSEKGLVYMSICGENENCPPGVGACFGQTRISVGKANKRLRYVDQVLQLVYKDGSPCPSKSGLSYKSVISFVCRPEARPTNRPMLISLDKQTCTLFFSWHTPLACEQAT

Substance “Human IGF2R domain 11^(E1544K, K1545S, L1547V) (clone E4) (from UniProt P11717 1508-1650) (domain or fragment)” registered a Kd in the assay with Human IGF2 (human) [1] of 15.5 nM. In the assay with Human IGF2 (human) [2], this substance had a Kd of 15.3 nM; a ka1 (two state model, first step) of 2.76e+06 m^-1 s^-1; a kd1 (two state model, first step) of 0.044 s⁻¹.
For “Human IGF2R domain 11 (wild type) (from UniProt P11717 1508-1650) (domain or fragment)”, the equilibrium dissociation constant (Kd) in assay [3] worked out at 77 nM; in the assay with Human IGF2 (human) [1], 64 nM; in assay [4], 53 nM; with Human IGF2 (human) [2], 46 nM. The kd1 (two state model, first step) in assay [4] was found to be 0.106 s⁻¹; with Human IGF2 (human) [2], 0.23 s⁻¹. This substance also showed a ka1 (two state model, first step) with Human IGF2 (human) [2] of 5e+06 m^-1 s^-1.
Turning to “Opossum IGF2R domain 11 (domain or fragment)”, the Kd with Chicken IGF2 (chicken) [5] came to 219 nM; in assay [3], 157 nM; with Human IGF2 (human) [1], 164 nM; in the assay with Chicken IGF2 (chicken) [6] it was 171 nM; in assay [4] it was 135 nM; in the assay with Human IGF2 (human) [2], 130 nM. For the same substance, the ka1 (two state model, first step) with Chicken IGF2 (chicken) [6] stood at 1.76e+06 m^-1 s^-1. Besides, the results for the kd1 (two state model, first step) (in assay [4]; with Human IGF2 (human) [2]) were 0.106 s⁻¹ and 0.108 s⁻¹, respectively.
Turning to “Echidna IGF2R domain 11 (domain or fragment)”, the Kd with Chicken IGF2 (chicken) [5] turned out to be 412 nM; in assay [3] it was 385 nM; with Human IGF2 (human) [1], 329 nM; in the assay with Chicken IGF2 (chicken) [6], 244 nM; in assay [4], 256 nM; with Human IGF2 (human) [2], 244 nM. The kd1 (two state model, first step) is 0.259 s⁻¹ in the assay with Chicken IGF2 (chicken) [6], 0.138 s⁻¹ in assay [4] and 0.106 s⁻¹ with Human IGF2 (human) [2].
Consider “Chicken IGF2R domain 11 with echidna CD loop (domain or fragment)”, for which the Kd in assay [7] is 328 nM; in the assay with Human IGF2 (human) [8], 325 nM; with Human IGF2 (human) [2], 427 nM.
